Laboratory results taken from paper PMC12446635.

Key:
[1] = biological target: human plasma glycoproteins; experiment: far-Western, overlay or dot blot; human or rat plasma diluted 1:10, boiled with LDS sample buffer and 50 mM DTT, separated on 3 to 8% polyacrylamide gradient gels, transferred to BioTraceNT; GST-SLBR 5 nM in DPBS with 1x Blocking Reagent, 90 min, room temperature; detected with anti-GST; in duplicate
[2] = biological target: human plasma glycoproteins; experiment: far-Western blot densitometry (ImageJ); conditions: human plasma; parent: est. 4.0; read off a plot
rat plasma glycoproteins = experiment: far-Western blot densitometry (ImageJ); conditions: rat plasma; parent: est. 13; read off a plot
[3] = biological target: biotinylated Neu5Acα2-3Gal disaccharide; experiment: ELISA; conditions: 500 nM immobilized GST-SLBR, read off a plot
[4] = biological target: biotinylated Neu5Gcα2-3Gal disaccharide; experiment: ELISA; conditions: 500 nM immobilized GST-SLBR, read off a plot
[5] = 1 μg/ml biotinylated disaccharide, parent: est. 0.16
[6] = highest ligand concentration point, about 5 μg/ml biotinylated disaccharide, parent: est. 0.31
[7] = 1 μg/ml biotinylated disaccharide, parent: est. 0.18
[8] = highest ligand concentration point, about 5 μg/ml biotinylated disaccharide, parent: est. 0.41

GST-tagged SLBRHsa V370F (domain or fragment)
fold decrease in total binding against wild-type SLBRHsa [1]: 3 fold

GST-tagged SLBR_(SrpA) (Siglec-like binding region of the serine-rich repeat adhesin SrpA, Streptococcus sanguinis strain SK36), wild type (from UniProt A3CM52) Y368F
response (Signal Intensity (x1000)) [2]: 0.2 | response (Signal Intensity (x1000)) (rat plasma glycoproteins): 15 | response [3, 5]: 0.26 A450 | response [3, 6]: 0.54 A450 | response [4, 7]: 0.62 A450 | response [4, 8]: 0.99 A450

GST-tagged SLBR_(SrpA) (Siglec-like binding region of the serine-rich repeat adhesin SrpA, Streptococcus sanguinis strain SK36), wild type (from UniProt A3CM52) Y368I
response (Signal Intensity (x1000)) [2]: 0 | response (Signal Intensity (x1000)) (rat plasma glycoproteins): 19 | response [3, 5]: 0.16 A450 | response [3, 6]: 0.32 A450 | response [4, 7]: 0.81 A450 | response [4, 8]: 1.1 A450

GST-tagged SLBR_(SrpA) (Siglec-like binding region of the serine-rich repeat adhesin SrpA, Streptococcus sanguinis strain SK36), wild type (from UniProt A3CM52) Y368V
response (Signal Intensity (x1000)) [2]: 0 | response (Signal Intensity (x1000)) (rat plasma glycoproteins): 18 | response [3, 5]: 0.12 A450 | response [3, 6]: 0.21 A450 | response [4, 7]: 0.62 A450 | response [4, 8]: 0.98 A450
